Measurements: publication PMC4696747 (PLoS ONE, 2015)

Columns and labels:
CC(=O)C(=O)O = assay: purified protein; details: NADH
[1] = molecular target: T1, rat lactate dehydrogenase A (rLDHA) (Rattus norvegicus, UniProt P04642); assay: SPR (BIAcore T200), steady-state affinity; kinetic fit gives Kd […]; type: binding
T1 construct: gene Ldha; amino acids 1–332 of full-length wild type, untagged, biotinylated

| Compound | Km (CC(=O)C(=O)O) | Kd [1] |
| --- | --- | --- |
| rat lactate dehydrogenase A (rLDHA) (Rattus norvegicus) | 530 ± 80 µM |  |
| NC(=O)C1=CN([C@@H]2O[C@H](COP(=O)(O)OP(=O)(O)OC[C@H]3O[C@@H](n4cnc5c(N)ncnc54)[C@H](O)[C@@H]3O)[C@@H](O)[C@H]2O)C=CC1 [NADH] |  | 6.4 ± 0.3 µM |
